In patent US20130129763A1 (ARNE FORSGREN, published 2013):
Like-named read-outs stand apart in the source and are kept apart here.

Legend:
[1] = biological target: UspA1 on the surface of M. catarrhalis (clinical isolates BBH18 and RH4) (Moraxella catarrhalis); test: flow cytometry on M. catarrhalis RH4 ΔuspA2 (UspA1 left on the surface) incubated with EDTA-treated normal human serum: rabbit anti-C3d pAb + FITC anti-rabbit pAb; same column: wild type mfi 5.4, Δmid mfi 5.7 (both carry UspA1 and UspA2), ΔuspA1/A2 mfi 0.8
[2] = biological target: UspA2 on the surface of M. catarrhalis (clinical isolates BBH18 and RH4) (Moraxella catarrhalis); test: flow cytometry on M. catarrhalis RH4 ΔuspA1 (UspA2 left on the surface) incubated with EDTA-treated normal human serum: rabbit anti-C3d pAb + FITC anti-rabbit pAb; same column: wild type mfi 5.4, Δmid mfi 5.7 (both carry UspA1 and UspA2), ΔuspA1/A2 mfi 0.8
[3] = biological target: UspA1 on the surface of M. catarrhalis (clinical isolates BBH18 and RH4) (Moraxella catarrhalis); test: flow cytometry on M. catarrhalis RH4 ΔuspA2 (UspA1 left on the surface) incubated with C3met: rabbit anti-C3d pAb + FITC anti-rabbit pAb; same column: wild type mfi 22.1, Δmid mfi 23.4 (both carry UspA1 and UspA2), ΔuspA1/A2 mfi 0.3
[4] = biological target: UspA2 on the surface of M. catarrhalis (clinical isolates BBH18 and RH4) (Moraxella catarrhalis); test: flow cytometry on M. catarrhalis RH4 ΔuspA1 (UspA2 left on the surface) incubated with C3met: rabbit anti-C3d pAb + FITC anti-rabbit pAb; same column: wild type mfi 22.1, Δmid mfi 23.4 (both carry UspA1 and UspA2), ΔuspA1/A2 mfi 0.3
[5] = biological target: T1, Engelbreth-Holm-Swarm mouse sarcoma laminin (Sigma) (mouse, UniProt P19137 25-3083; P02469 22-1786; P02468 34-1607); test: ELISA: 40 nM protein coated, laminin 20 µg/ml, rabbit anti-laminin pAb + HRP anti-rabbit pAb
T1 construct: also called soluble laminin

[6] = biological target: T1, Engelbreth-Holm-Swarm mouse sarcoma …; test: as above; remark: listed apart in the source
[7] = biological target: T2, fibronectin (Sigma), soluble (UniProt P02751 32-2296); test: competition, flow cytometry: fibronectin pre-incubated with the UspA1 fragment, then M. catarrhalis added; fibronectin left bound to the bacteria detected with anti-fibronectin pAb
T2 construct: also called soluble fibronectin; 125I-labeled fibronectin
T2 sequence (P02751 other isoform, or with tags, fused parts or gaps limits assumed): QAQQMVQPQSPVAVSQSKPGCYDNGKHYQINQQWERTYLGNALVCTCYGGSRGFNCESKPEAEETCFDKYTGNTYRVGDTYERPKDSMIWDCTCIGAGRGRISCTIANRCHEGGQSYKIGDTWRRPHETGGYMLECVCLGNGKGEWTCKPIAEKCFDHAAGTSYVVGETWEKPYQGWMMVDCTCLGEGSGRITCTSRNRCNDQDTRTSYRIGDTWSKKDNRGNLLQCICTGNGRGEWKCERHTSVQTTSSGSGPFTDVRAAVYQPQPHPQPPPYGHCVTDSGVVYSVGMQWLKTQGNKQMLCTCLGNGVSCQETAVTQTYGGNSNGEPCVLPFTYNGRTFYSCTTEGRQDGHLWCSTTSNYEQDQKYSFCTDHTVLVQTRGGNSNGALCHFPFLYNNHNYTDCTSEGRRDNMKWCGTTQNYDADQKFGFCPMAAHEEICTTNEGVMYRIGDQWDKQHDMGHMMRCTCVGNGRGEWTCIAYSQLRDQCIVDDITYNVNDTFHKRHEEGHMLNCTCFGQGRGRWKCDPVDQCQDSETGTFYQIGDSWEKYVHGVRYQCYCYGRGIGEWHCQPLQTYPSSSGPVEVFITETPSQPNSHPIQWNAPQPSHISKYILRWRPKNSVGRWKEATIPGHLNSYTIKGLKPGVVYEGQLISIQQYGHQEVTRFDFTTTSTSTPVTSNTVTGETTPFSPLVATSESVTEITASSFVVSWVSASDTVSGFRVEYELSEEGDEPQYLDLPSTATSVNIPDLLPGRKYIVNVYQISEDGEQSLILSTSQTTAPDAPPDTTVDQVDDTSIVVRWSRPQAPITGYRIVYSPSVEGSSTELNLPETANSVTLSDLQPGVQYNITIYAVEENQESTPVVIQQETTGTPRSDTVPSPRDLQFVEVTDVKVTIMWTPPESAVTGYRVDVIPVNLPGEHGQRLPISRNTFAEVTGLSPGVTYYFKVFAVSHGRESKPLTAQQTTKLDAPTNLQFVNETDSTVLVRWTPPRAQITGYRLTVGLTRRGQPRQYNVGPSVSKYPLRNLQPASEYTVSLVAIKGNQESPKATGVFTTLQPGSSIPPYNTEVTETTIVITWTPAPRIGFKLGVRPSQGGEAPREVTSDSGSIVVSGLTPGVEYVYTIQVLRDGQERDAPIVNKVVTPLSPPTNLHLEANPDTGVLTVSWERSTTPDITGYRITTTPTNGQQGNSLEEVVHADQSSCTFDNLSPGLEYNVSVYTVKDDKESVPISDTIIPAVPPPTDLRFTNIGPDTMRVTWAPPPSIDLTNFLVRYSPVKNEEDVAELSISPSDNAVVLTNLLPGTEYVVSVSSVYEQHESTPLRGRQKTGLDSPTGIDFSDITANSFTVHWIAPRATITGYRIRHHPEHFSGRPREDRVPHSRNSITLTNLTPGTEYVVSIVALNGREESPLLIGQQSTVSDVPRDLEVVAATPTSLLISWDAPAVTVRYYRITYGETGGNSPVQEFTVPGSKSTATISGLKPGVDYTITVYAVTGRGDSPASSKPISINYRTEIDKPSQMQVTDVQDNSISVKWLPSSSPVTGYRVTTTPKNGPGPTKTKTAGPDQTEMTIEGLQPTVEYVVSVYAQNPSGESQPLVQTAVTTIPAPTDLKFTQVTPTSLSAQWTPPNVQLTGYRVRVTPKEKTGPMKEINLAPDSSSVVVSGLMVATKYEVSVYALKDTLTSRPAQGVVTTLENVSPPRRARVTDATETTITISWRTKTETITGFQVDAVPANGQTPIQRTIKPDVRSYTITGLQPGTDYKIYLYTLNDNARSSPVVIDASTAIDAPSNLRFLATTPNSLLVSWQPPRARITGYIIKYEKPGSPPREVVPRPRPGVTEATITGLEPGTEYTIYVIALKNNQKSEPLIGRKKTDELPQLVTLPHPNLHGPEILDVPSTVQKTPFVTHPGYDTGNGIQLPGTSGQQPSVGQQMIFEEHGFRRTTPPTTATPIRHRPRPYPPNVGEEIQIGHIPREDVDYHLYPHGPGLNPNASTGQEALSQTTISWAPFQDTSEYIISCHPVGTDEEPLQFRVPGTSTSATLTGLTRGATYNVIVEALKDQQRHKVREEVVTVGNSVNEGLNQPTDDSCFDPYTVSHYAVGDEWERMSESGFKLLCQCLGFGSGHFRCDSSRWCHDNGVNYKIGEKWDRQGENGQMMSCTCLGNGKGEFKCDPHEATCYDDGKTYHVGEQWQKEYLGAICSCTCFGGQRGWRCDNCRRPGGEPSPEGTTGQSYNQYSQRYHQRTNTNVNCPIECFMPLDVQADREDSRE

[8] = biological target: T2, fibronectin (Sigma), soluble; test: ELISA: 40 nM fragment coated, fibronectin 80 µg/ml, rabbit anti-fibronectin pAb + HRP anti-rabbit pAb
[9] = biological target: T1, Engelbreth-Holm-Swarm mouse sarcoma …; test: ELISA: 40 nM protein coated, laminin 20 µg/ml, rabbit anti-laminin pAb + HRP anti-rabbit pAb; remark: listed apart in the source
[10] = biological target: T2, fibronectin (Sigma), soluble; test: ELISA: 40 nM fragment coated, fibronectin 120 µg/ml, rabbit anti-fibronectin pAb + HRP anti-rabbit pAb
[11] = biological target: T1, Engelbreth-Holm-Swarm mouse sarcoma …; test: ELISA: 40 nM protein coated, laminin 20 µg/ml, rabbit anti-laminin pAb + HRP anti-rabbit pAb; remark: listed apart in the source
[12] = biological target: T3, methylamine-treated C3 (C3met) (human, UniProt P01024 23-667; P01024 672-1663); test: SPR (Biacore 2000), UspA protein amine-coupled on CM5 chip, C3met injected, steady state affinity model; UspA2^30-539 on the chip
T3 construct: mature; also called C3b-like molecule; [125I]-C3met
T3 sequence (P01024 23-667 limits assumed, chain 1 of 2): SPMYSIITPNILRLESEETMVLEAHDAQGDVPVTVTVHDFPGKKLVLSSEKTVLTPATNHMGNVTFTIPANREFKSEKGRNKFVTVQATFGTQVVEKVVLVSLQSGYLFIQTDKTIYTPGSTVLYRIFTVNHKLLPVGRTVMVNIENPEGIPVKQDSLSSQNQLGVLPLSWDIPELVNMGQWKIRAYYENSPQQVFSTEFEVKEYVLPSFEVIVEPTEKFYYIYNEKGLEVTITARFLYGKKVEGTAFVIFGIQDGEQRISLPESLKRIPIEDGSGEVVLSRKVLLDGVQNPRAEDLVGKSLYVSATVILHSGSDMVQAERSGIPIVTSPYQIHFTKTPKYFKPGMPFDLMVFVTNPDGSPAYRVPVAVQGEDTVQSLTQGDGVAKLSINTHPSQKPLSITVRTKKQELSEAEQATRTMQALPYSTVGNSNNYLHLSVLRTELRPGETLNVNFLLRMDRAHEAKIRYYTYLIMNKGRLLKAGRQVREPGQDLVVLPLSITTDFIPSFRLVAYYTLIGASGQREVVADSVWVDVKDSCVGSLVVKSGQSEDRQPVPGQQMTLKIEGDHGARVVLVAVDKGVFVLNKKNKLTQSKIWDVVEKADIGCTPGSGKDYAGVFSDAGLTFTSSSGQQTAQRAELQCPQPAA
T3 sequence (P01024 672-1663 limits assumed, chain 2 of 2): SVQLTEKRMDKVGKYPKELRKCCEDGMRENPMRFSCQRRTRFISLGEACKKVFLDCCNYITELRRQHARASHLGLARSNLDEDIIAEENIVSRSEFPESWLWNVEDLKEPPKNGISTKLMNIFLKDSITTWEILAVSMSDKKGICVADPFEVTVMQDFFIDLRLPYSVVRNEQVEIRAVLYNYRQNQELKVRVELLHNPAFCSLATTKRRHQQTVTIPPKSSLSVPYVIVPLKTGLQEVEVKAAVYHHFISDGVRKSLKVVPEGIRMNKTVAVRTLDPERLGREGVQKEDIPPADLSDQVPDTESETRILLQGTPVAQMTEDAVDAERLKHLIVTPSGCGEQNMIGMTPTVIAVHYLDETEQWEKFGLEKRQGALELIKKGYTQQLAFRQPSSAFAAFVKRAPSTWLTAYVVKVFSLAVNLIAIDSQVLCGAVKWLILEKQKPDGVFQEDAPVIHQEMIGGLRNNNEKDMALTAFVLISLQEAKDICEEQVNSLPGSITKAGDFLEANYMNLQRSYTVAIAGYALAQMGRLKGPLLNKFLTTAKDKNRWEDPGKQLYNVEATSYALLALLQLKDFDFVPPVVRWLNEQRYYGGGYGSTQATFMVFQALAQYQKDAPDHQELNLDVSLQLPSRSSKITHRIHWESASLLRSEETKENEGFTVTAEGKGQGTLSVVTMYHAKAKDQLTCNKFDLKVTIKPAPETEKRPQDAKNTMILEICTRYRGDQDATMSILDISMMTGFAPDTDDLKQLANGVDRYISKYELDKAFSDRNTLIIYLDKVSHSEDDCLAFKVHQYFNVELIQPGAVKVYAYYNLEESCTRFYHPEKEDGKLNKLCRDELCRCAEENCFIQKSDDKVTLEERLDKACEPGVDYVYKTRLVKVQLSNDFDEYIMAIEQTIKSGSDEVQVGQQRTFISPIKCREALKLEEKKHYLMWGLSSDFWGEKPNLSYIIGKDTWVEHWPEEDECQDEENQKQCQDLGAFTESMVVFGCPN

[13] = biological target: T1, Engelbreth-Holm-Swarm mouse sarcoma …; test: ELISA: 40 nM UspA2 30-539 coated, soluble laminin titrated in three-fold steps 0.03-60 µg/ml, rabbit anti-laminin pAb + HRP anti-rabbit pAb
[14] = biological target: T3, methylamine-treated C3 (C3met); test: ELISA: 40 nM protein coated, C3met in solution, goat anti-human C3 pAb + HRP anti-goat pAb, background subtracted

Molecule: complement C3 in normal human serum (from UniProt P01024 23-667; P01024 672-1663)
- mfi [1]: 1.4
- mfi [2]: 3.9

Molecule: methylamine-treated C3 (C3met) (from UniProt P01024 23-667; P01024 672-1663)
- mfi [3]: 2.7
- mfi [4]: 14.9

B1: recombinant UspA2^165-318 (other)
chain: KDAIAKNNESIEDLYDFGHEVAESIGEIHAHNEAQNETLKGLITNSIENTNNITKNKADIQALENNVVEELFNLSGRLIDQKADIDNNINNIYELAQQQDQHSSDIKTLKKNVEEGLLELSDHIIDQKTDIAQNQANIQDLATYNELQDQYAQK
notes: also called UspA2^165-316; UspA2^155-318 (misprints)
- binding result [5]: no binding

B2: recombinant UspA1^50-321 (other)
chain: KVGKATNKISGGDNNTANGTYLTIGGGDYNKTKGRYSTIGGGLFNEATNEYSTIGSGGYNKAKGRYSTIGGGGYNEATNQYSTIGGGDNNTAKGRYSTIGGGGYNEATIENSTVGGGGYNQAKGRNSTVAGGYNNEATGTDSTIAGGRKNQATGKGSFAAGIDNKANADNAVALGNKNTIEGENSVAIGSNNTVKKGQQNVFILGSNTDTTNAQNGSVLLGHNTAGKAATIVNSAEVGGLSLTGFAGASKTGNGTVSVGKKGKERQIVHVGA
- binding result [6]: no binding
- binding result [7]: no binding

B3: recombinant UspA1^50-197 (other)
chain: KVGKATNKISGGDNNTANGTYLTIGGGDYNKTKGRYSTIGGGLFNEATNEYSTIGSGGYNKAKGRYSTIGGGGYNEATNQYSTIGGGDNNTAKGRYSTIGGGGYNEATIENSTVGGGGYNQAKGRNSTVAGGYNNEATGTDSTIAGGR
- binding result [8]: no binding
- binding result [6]: no binding

B4: recombinant UspA1^433-580 (other)
chain: KTLKNNVEEGLLDLSGRLIDQKADLTKDIKALESNVEEGLLDLSGRLIDQKADIAKNQADIAQNQTDIQDLAAYNELQDAYAKQQTEAIDALNKASSANTDRIATAELGIAENKKDAQIAKAQANENKDGIAKNQADIQLHDKKITNL
- binding result [6]: no binding
- binding result [7]: no binding

B5: recombinant UspA1^50-491 (other)
chain: KVGKATNKISGGDNNTANGTYLTIGGGDYNKTKGRYSTIGGGLFNEATNEYSTIGSGGYNKAKGRYSTIGGGGYNEATNQYSTIGGGDNNTAKGRYSTIGGGGYNEATIENSTVGGGGYNQAKGRNSTVAGGYNNEATGTDSTIAGGRKNQATGKGSFAAGIDNKANADNAVALGNKNTIEGENSVAIGSNNTVKKGQQNVFILGSNTDTTNAQNGSVLLGHNTAGKAATIVNSAEVGGLSLTGFAGASKTGNGTVSVGKKGKERQIVHVGAGEISDTSTDAVNGSQLHVLATVVAQNKADIKDLDDEVGLLGEEINSLEGEIFNNQDAIAKNQADIKTLESNVEEGLLDLSGRLLDQKADIDNNINNIYELAQQQDQHSSDIKTLKNNVEEGLLDLSGRLIDQKADLTKDIKALESNVEEGLLDLSGRLIDQKADIAKNQA
notes: also called N-terminal half of UspA1
- binding result [9]: binds

B6: recombinant UspA1^557-704 (other)
chain: NENKDGIAKNQADIQLHDKKITNLGILHSMVARAVGNNTQGVATNKADIAKNQADIANNIKNIYELAQQQDQHSSDIKTLAKVSAANTDRIAKNKAEADASFETLTKNQNTLIEQGEALVEQNKAINQELEGFAAHADVQDKQILQNQ
- binding result [6]: no binding
- binding result [7]: no binding

B7: recombinant UspA2^30-177 (other)
chain: QAKNDITLEDLPYLIKKIDQNELEADIGDITALEKYLALSQYGNILALEELNKALEELDEDVGWNQNDIANLEDDVETLTKNQNAFAEQGEAIKEDLQGLADFVEGQEGKILQNETSIKKNTQRNLVNGFEIEKNKDAIAKNNESIED
- binding result [10]: no binding
- binding result [11]: binds

B8: recombinant UspA2^101-318 (other)
chain: LEDDVETLTKNQNAFAEQGEAIKEDLQGLADFVEGQEGKILQNETSIKKNTQRNLVNGFEIEKNKDAIAKNNESIEDLYDFGHEVAESIGEIHAHNEAQNETLKGLITNSIENTNNITKNKADIQALENNVVEELFNLSGRLIDQKADIDNNINNIYELAQQQDQHSSDIKTLKKNVEEGLLELSDHIIDQKTDIAQNQANIQDLATYNELQDQYAQK
- binding result [5]: no binding

B9: UspA1 454-770 (other)
recombinant truncated protein: KADLTKDIKALESNVEEGLLDLSGRLIDQKADIAKNQADIAQNQTDIQDLAAYNELQDAYAKQQTEAIDALNKASSANTDRIATAELGIAENKKDAQIAKAQANENKDGIAKNQADIQLHDKKITNLGILHSMVARAVGNNTQGVATNKADIAKNQADIANNIKNIYELAQQQDQHSSDIKTLAKVSAANTDRIAKNKAEADASFETLTKNQNTLIEQGEALVEQNKAINQELEGFAAHADVQDKQILQNQADITTNKTAIEQNINRTVANGFEIEKNKAGIATNKQELILQNDRLNRINETNNHQDQKIDQLGYAL
- binding result [6]: no binding

B10: recombinant UspA2^302-458 (other)
chain: IQDLATYNELQDQYAQKQTEAIDALNKASSENTQNIEDLAAYNELQDAYAKQQTEAIDALNKASSENTQNIEDLAAYNELQDAYAKQQAEAIDALNKASSENTQNIAKNQADIANNITNLYELAQQQDKHRSDIKTLAKTSAANTDRIAKNKADDDA
- binding result [5]: no binding

B11: recombinant UspA2^30-539 (M. catarrhalis Bc5) (other)
chain: QAKNDITLEDLPYLIKKIDQNELEADIGDITALEKYLALSQYGNILALEELNKALEELDEDVGWNQNDIANLEDDVETLTKNQNAFAEQGEAIKEDLQGLADFVEGQEGKILQNETSIKKNTQRNLVNGFEIEKNKDAIAKNNESIEDLYDFGHEVAESIGEIHAHNEAQNETLKGLITNSIENTNNITKNKADIQALENNVVEELFNLSGRLIDQKADIDNNINNIYELAQQQDQHSSDIKTLKKNVEEGLLELSDHIIDQKTDIAQNQANIQDLATYNELQDQYAQKQTEAIDALNKASSENTQNIEDLAAYNELQDAYAKQQTEAIDALNKASSENTQNIEDLAAYNELQDAYAKQQAEAIDALNKASSENTQNIAKNQADIANNITNLYELAQQQDKHRSDIKTLAKTSAANTDRIAKNKADDDASFETLTKNQNTLIEKDKEHDKLITANKTAIDANKASADTKFAATADAFTKNGNAITKNAKSITDLGTKVDGFDSRVTALDT
notes: also called UspA^230-539 [sic]
- Kd [12]: 3000 nM
- EC50 (read off the curve) [13]: ~3 µg/mL

B12: recombinant UspA1^680-770 (other)
chain: KAINQELEGFAAHADVQDKQILQNQADITTNKTAIEQNINRTVANGFEIEKNKAGIATNKQELILQNDRLNRINETNNHQDQKIDQLGYAL
- binding result [6]: no binding
- binding result [7]: no binding

B13: UspA2 446-539 (other)
recombinant truncated protein: TDRIAKNKADDDASFETLTKNQNTLIEKDKEHDKLITANKTAIDANKASADTKFAATADAFTKNGNAITKNAKSITDLGTKVDGFDSRVTALDT
- binding result [10]: no binding
- binding result [14]: no binding
- binding result [5]: no binding
